Reference: US20100035945A1, “SMALL MOLECULE INHIBITORS OF BACTERIAL DAM DNA METHYLTRANSFERASES” (priority 2004, published 2010)
“Also recorded” adds a separate entry of the source. Where two headings read alike, the source gives them in different places.

Legend:
[1] = target: EcoDam K9A K9A (Escherichia coli) (UniProt P0AEE8); experiment: SPR; conditions: data not shown
[2] = target: EcoDam R124A R124A (Escherichia coli) (UniProt P0AEE8); experiment: SPR
[3] = system: EPEC; format: cell-based, enteropathogenic E. coli (EPEC); conditions: 20 μM compound, 3T3 cells infected with EPEC for 6 hrs, FITC-phalloidin/DAPI
Text: Cell and animal models for pathogenic E. coli infection: Enteropathogenic E. coli (EPEC), which is closely related to enterohemorrhagic E. coli O157:H7 (EHEC), and the closely related mouse pathogen Citrobacter rodentium all cause attaching and effacing (A/E) lesions, characterized by flattening of intestinal microvilli, adherence of the bacteria to epithelial cells, and reorganization of the host actin cytoskeleton, which result in the formation of an actin-filled membrane protrusion or “pedestal” beneath each bacterium (Goosney et al., 2000; Knutton et al., 1989). Pedestal formation is readily detected on cultured fibroblasts (see FIG. 30) exposed to EPEC, and then stained with antibodies that recognized outer membrane proteins in the bacterium (green in FIG. 30) or DAPI, which recognizes bacterial and cellular DNA (blue in FIG. 30), together with phalloidin to recognize actin (red in […]). Pedestals are seen as intense actin staining directly opposed to the bacterium.
(§1) To determine whether formation of actin pedestals by EPEC could be used to screen for drugs which inhibit virulence, we tested each of the 82 compounds. 3T3 cells were plated in 96 well optical dishes. In this “proof of principle” experiment, each of the 82 compounds was added to a well at 20 μM, and cells were infected with EPEC for 6 hrs. The optical density (OD600) of the supernatant was assessed to estimate effects on bacterial growth, and the cells were fixed and stained with DAPI to recognize bacteria (and cell nuclei), and FITC-phalloidin to recognize filamentous actin. Inhibition of actin pedestals is readily identifiable as the loss of intense actin staining (Kalman et al., 1999; Swimm et al., 2004a). The plate was then scanned visually on an inverted Zeiss 200M fluorescence microscope with a 20× objective. All the wells on the dish were examined with 5 minutes (a high throughput format). At low power, actin pedestals are seen as intense fluorescence apposed to groups of bacteria (see FIG. 31B, arrow).

[4] = system: EPEC; experiment: bacterial growth by OD600 of supernatant / growth curves; format: cell-based, enteropathogenic E. coli (EPEC); conditions: 20 μM compound, listed as G6
Experimental: as §1

[5] = system: 3T3 cells; conditions: 20 μM compound
Experimental: as §1

[6] = target: Dam (Escherichia coli, UniProt P0AEE8); conditions: compound concentration 200 μM; preliminary results, microplate assay
[7] = target: T1, EcoDam DNA adenine methyltransferase (Escherichia coli, UniProt P0AEE8 SEQ:1-274); conditions: 2-aminopurine replacing orphan Thy; AdoHcy, Thy flipping
[8] = target: T2, T4Dam DNA adenine methyltransferase (Enterobacteria phage T4, UniProt P04392 SEQ:1-259); experiment: structure; AdoHcy; PDB 1YF3; nonspecific and 1/4-site; conditions: one-base 5' overhangs
[9] = target: T1, EcoDam DNA adenine methyltransferase; experiment: structure; AdoHcy cognate complex 1.89 A; also sinefungin non-canonical joint complex 1.99 A; conditions: tags: His tag
Experimental: His Tag-EcoDam is expressed in HMS174(DE3) cells and purified using Ni²⁺-affinity, UnoS, and S75 Sepharose sizing columns. A 0.5-liter induced culture yields approximately 7 mg purified His Tag-EcoDam. In the last purification step and during concentration, cofactor analog AdoHcy or sinefungin is added is added to the protein at approximately 2:1 molar ratio. Concentrated binary complexes are mixed with oligonucleotide duplex (synthesized by New England Biolabs, Inc) at a protein to DNA ratio of about 2:1 and allowed to stand on ice for at least two hours before crystallization. Final protein concentration for crystallization is about 15 mg/mL. In hanging drop crystallization trials with AdoHcy, the ternary complex crystals appeared under low salt conditions of 100 mM KCl, 10 mM MgSO₄, 5-15% PEG400, and 100 mM buffer (MES or HEPES) pH 6.6-7.4 (the cognate crystal form in Table 4).
Structural determination of the cognate ternary complex proceeded by molecular replacement with the program REPLACE (Tong and Rossmann, 1997) using protein coordinates of a DpnM monomer structure (PDB 2DPM) (Tran et al., 1998). […] Structure of the non-cognate ternary complex was determined using a protein monomer from the refined cognate complex structure as a search model.

[10] = target: T2, T4Dam DNA adenine methyltransferase; experiment: structure; sinefungin; PDB 1YFL; full site with flipped Ade
[11] = target: T2, T4Dam DNA adenine methyltransferase; experiment: structure; AdoHcy; nonspecific mode, not at GATC; 3.1 A

In the case of SPR GATC oligonucleotide duplex, the binding signal (% of wild type binding) [1] is reported as 70 and the binding signal (fold reduction vs wild type) [2] is reported as 10.

For `O=C1Oc2ccccc2C(=O)/C1=C/Nc1nc(-c2ccc(O)c(O)c2)cs1` [Compound 78], the actin pedestal formation [3] was “inhibit actin pedestal formation”, the actin pedestal formation ([3]; listed as G6) was “appeared to inhibit actin pedestals; also recorded: No actin pedestals are observed” and the actin pedestal formation ([3]; listed as NCI 659390) was “inhibit actin pedestal formation”. For the same molecule, the “effect on bacterial growth (OD600)” value [4] was “did not affect bacterial growth; also recorded: no effect on bacterial growth”, the “gross cytopathological effects on 3T3 cells” value [5] was “no gross cytopathological effects” and the Factor of inhibition [6] was 5.

GATC with 2AP at orphan Thy gave a binding signal (fold fluorescence increase) [7] of 6.

B1: 13-mer duplex II (dsDNA)
DNA 1: TGTCAGATCATGG
DNA 2: ACCATGATCTGAC
B1: binds [8].

B2: EcoDam 12-mer (dsDNA)
DNA 1: TCTAGATCTAGA
DNA 2: TCTAGATCTAGA
B2: binds [9].

B3: 16-mer duplex (dsDNA)
DNA 1: TCACAGGATCCTGTGA
DNA 2: TCACAGGATCCTGTGA
B3: binds [10].

B4: 12-mer duplex I (dsDNA)
DNA 1: ACAGGATCCTGT
DNA 2: ACAGGATCCTGT
B4: binds [11].
